Experimental data: the domain aggregation screens of Martell et al. (2025)

Assay: soluble fraction after stress (log2 fold change); higher = more stays soluble; pooled small domains, quantitative proteomics
Details: stress: pH 4
Summary of the method: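 Custom libraries of small protein domains were pooled and measured with high-throughput quantitative proteomics after pH 4 stress. The read-out is the fold change in the amount of each domain that stays soluble after the acid stress, taken as a measure of aggregation propensity. Fold changes are on a log2 scale, and higher values mean more of the domain stayed soluble.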

| Sequence | soluble fraction (log2) |
| --- | --- |
| HMYQRLPFSFANRYKMVLESQHPERAPILYYVEPLKSAAIIEVSRVVKNGFTPQAITLDEFDKKLTDAYQR | -0.0881 |
| HMTWIAEIELRLMGNGAVTGAKIVKSTDLKDVDAAIYRAALEASPYPAPESGIGGRFTIKLKY | 0.015 |
| HMAEVTLTVREQEVLHLLARGMSNGEMAAHLYVEPTTIKYHLTGLLQKTGSRDRLQAVLWGIRAGMVH | -1.15 |
| HMEDFDLSDTERKIIAQIGHGYSNKEIAQKLGFSEGTIRNYLSVILDKLDLRDRTQLAIWYLSR | -0.229 |
| HMNSSHRLIGLDPGLRVTGWGIVDAIGTKLVHVANGSVKSQQNAPLATRLLELENGLEEVFDNWQPDFA | -0.0459 |
| HMADVPSTIFEAYRILGLNPEAPPVAVKKVVDALRMSWHPDHARSEPDRRHREERIKQINAAWDLLKGV | -0.128 |
| HMNIMAQDWISSPMGPISFKSNQHGLVKIGWGEVPRENTEQPNLEFTRKWLVDYFEGKASPLPYF | -1.55 |
| HMSLGSSLFHARKKSGLTQEAVAEKLGVSRQTISKWETNETLPDIRQSKGLAMLYHMTLDELIE | 0.138 |
| HMHQIFAETVFEDIAFGPRNKGFNEEEVAKQVREAMAFVGLDYDTYAQRSPFQLSGGQMRRVAIAGVVA | -0.874 |
| HMDIIIEEGIDESLSTDDAILDLLGRASDAFSNAQKALLEGDLGSYQKLIEQAERLVKKATELLGENN | -1.1 |
| HMAISQYGSQSDEVTKIQTRLKAWGYFDGPVTAYYGSQTTEAVKKFQQKHGLSATGVADAKTLELIGLP | 0.056 |
| HMIQIGEQIRYYRTKIGISQEALALMADINPAYIGQIERGIKSPTVNTIKKIANAMGINLHTLFT | -0.434 |
| HMQYIINFEYSGMLLREYLRGVLGLSHGTLTALKKDPLGILLNGEHATVRAVLHAGDRLTLALE | -1.13 |
| HMQNYLLFEEAKNIVNTLNLTNEKDWSEFIKKDFTYKNQIPIFPNQYYKHKGWVDWNDWLGINK | -1.62 |
| HMEHDYGLSGREREVLELMVQGLVKKEIADRLALSYHTVDNHLRSIYAKLQVHTRGGAVAKALSEHLVPP | -0.483 |
| HMDAMMQRLERLKELASSADGSKDYLILGPLRRDLAKLMALEDPKLRQGAEELDRKILAILS | -0.437 |
| HMSVLVLPMLKELTHEDREVVELFYLNDMSVREIALIISVPIGTVKSRLHRARAQLKHQIVNLNQ | -1.18 |
| HMSSWEEQLKIWAKNELASGNTDILARATVSFEQILIEAALTHTGGRKKTAAELLGWGRNTLTRKIKELHI | -0.743 |
| HMDFTMSEIQTAMAALPRGYRTVVQLYLVDGYSHKEIAEMLGVDVNTSKSQLSRGRKQLQAFLAAMS | -0.602 |
| HMSILSIGLERGMKKGVAWGIAKSILDILEETGPVSEKTREMIVTETDAERLSAWVKKAARSNSEEDFLSK | -1.21 |
| HMKGSYTVKSGDNLWSIARKFYGGSGSTWTKIYSANKSTIESTARRYGRSSSDNGHWIYPGTVLVIP | 0.405 |
| HMRFNIGNVIEHYKLNTEDLAKVLFPTVKYPKQAFDRVLKGEANLDVIQLERLANHIGVLVTDLF | -0.659 |
| HMRAGEAVTGQVIGVKEDEIILSIAGSKSEGIITRSEFTNEPNVDLTTKVSVGDELEVKVLKVNDGEGMAS | -0.244 |
| HMHSILDDIPTVGPARRKALMRRYESLEAIRQATVDELKELPEINEASAEAIVSFFAGQAKEG | -1.13 |
| HMALKSYEDMVGKTGVAYTVLRPSGKVIINDELFDATARSGMIEKGNEVIIYDYKNAQLIVEK | -0.518 |
| HMKKYEFIEDLPGVGPATAQKLRDLGYHTVESLAMATARELEPIGVGEKKAFSMIEAARSAIGFS | 0.00186 |
| HMSTTILSFQNRVVIETLHNEGRSLRYIANYLGFSKATIFNELHRLNSEYRAELAQADFERKVSQR | -0.53 |
| HMKIDNPEYQKIMDMIPYFFQTRNYDEAIEALSYVIEQEPSFSEAYNKRATFYFMMGDFENSMKDIESTLA | -0.75 |
| HMRALPAGQADLLKWIDGVTPRSVEELELLSGLEPGRLSELLMELELAGIVRAVAGDSYIKISKS | -0.534 |
| HMNREDYIKAIFKIAEREGEASNQRIADSLGVSRASASEMVKKLIQEGFVVAEGRQLSLSAEGERIA | -0.32 |
